This passage reports Kd results from paper PMC4742278, “BS69/ZMYND11 C-Terminal Domains Bind and Inhibit EBNA2” (PLoS Pathogens, 2016).

The target of assay [1] is BS69/ZMYND11 coiled-coil-MYND tandem domains (BS69_(CC-MYND), residues 440–562) (mouse). In words: ITC; peptide (~1 mM) titrated into BS69_(MYND) or BS69_(CC-MYND) (~0.1 mM) at 5°C; 20 mM Tris-HCl pH 7.5, 100 mM NaCl, 2 mM DTT; one-site fitting model.
The target of assay [2] is BS69 MYND domain (BS69_(MYND), residues 516–562) (mouse). The description is as above.

The term Kd denotes the free concentration of one partner at which half of the binding sites on the other are occupied at equilibrium, for simple one-to-one binding. Read a high Kd as a looser complex. Turning to H-EAPILFPDDWY-NH2 [EBNA2_(435–445) peptide (NH2-…-CONH2)], the Kd stood at 34.9 µM in assay [1] and 93.4 µM in assay [2].
